In patent publication US20160015814A1, “Fast-acting insulin formulation comprising a substituted anionic compound and a polyanionic compound” (ADOCIA, priority 2014, published 2016):

Columns and labels:
human insulin = human insulin (Homo sapiens, UniProt P01308); test: Test of dissolution of human insulin at its isoelectric point; assay type: physicochemical; details: human insulin 100 IU/mL alone, pH 5.3
Text: If an interaction exists between human insulin and the substituted anionic compound, it is then possible to dissolve the human insulin at its isoelectric point. […] The appearance of the solution is documented.

humans = details: injected subcutaneously, diabetic patients; cited from earlier work

Chain of human insulin (P01308 25-54 limits assumed): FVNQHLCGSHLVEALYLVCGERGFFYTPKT
Chain of human insulin (P01308 90-110 limits assumed): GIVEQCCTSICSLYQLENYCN

For “Human insulin: Human insulin, tested at 100 IU/mL alone in the dissolution test; isoelectric point 5.3”, the Visual appearance (human insulin) is given as “Turbid” and the “time to hypoglycemiant effect” value (humans) is given as 60 min.
